Results reported in patent US6610494B2, “Solid-phase activity assay for biologically active substance” (priority 1996, dated 2003).

B1: endo-1,3-1,4-β-D-glucan-4-glucanohydrolase (protein, UniProt P04957 29-242, looked up)
Beta-glucanase: QTGGSFFDPFNGYNSGFWQKADGYSNGNMFNCTWRANNVSMTSLGEMRLALTSPAYNKFDCGENRSVQTYGYGLYEVRMKPAKNTGIVSSFFTYTGPTDGTPWDEIDIEFLGKDTTKVQFNYYTNGAGNHEKIVDLGFDAANAYHTYAFDWQPNSIKWYVDGQLKHTATNQIPTTPGKIMMNLWNGTGVDEWLGSYNGVNPLYAHYDWVRYTKK
notes: EC 3.2.1.73 from Bacillus subtilis, Megazyme
B2: papain: cysteine protease, EC 3.4.22.2 (protein, UniProt P00784 134-345, looked up)
Papain: IPEYVDWRQKGAVTPVKNQGSCGSCWAFSAVVTIEGIIKIRTGNLNEYSEQELLDCDRRSYGCNGGYPWSALQLVAQYGIHYRNTYPYEGVQRYCRSREKGPYAAKTDGVRQVQPYNEGALLYSIANQPVSVVLEAAGKDFQLYRGGIFVGPCGNKVDHAVAAVGYGPNYILIKNSWGTGWGENGYIRIKRGTGNSYGVCGLYTSSFYPVKN
B3: 1,4-D glucan glucanohydrolase (protein, UniProt P00690 16-511, looked up)
Pancreatic alpha-amylase: QYAPQTQSGRTSIVHLFEWRWVDIALECERYLGPKGFGGVQVSPPNENIVVTNPSRPWWERYQPVSYKLCTRSGNENEFRDMVTRCNNVGVRIYVDAVINHMCGSGAAAGTGTTCGSYCNPGNREFPAVPYSAWDFNDGKCKTASGGIESYNDPYQVRDCQLVGLLDLALEKDYVRSMIADYLNKLIDIGVAGFRIDASKHMWPGDIKAVLDKLHNLNTNWFPAGSRPFIFQEVIDLGGEAIQSSEYFGNGRVTEFKYGAKLGTVVRKWSGEKMSYLKNWGEGWGFMPSDRALVFVDNHDNQRGHGAGGASILTFWDARLYKVAVGFMLAHPYGFTRVMSSYRWARNFVNGQDVNDWIGPPNNNGVIKEVTINADTTCGNDWVCEHRWRQIRNMVWFRNVVDGQPFANWWANGSNQVAFGRGNRGFIVFNNDDWQLSSTLQTGLPGGTYCDVISGDKVGNSCTGIKVYVSSDGTAQFSISNSAEDPFIAIHAESKL
notes: EC 3.2.1.1 from porcine pancreas (Type 1-A)
B4: thermolysin: metaloprotease, EC 3.4.24.27 (protein, UniProt P00800 233-548, looked up)
Thermolysin: ITGTSTVGVGRGVLGDQKNINTTYSTYYYLQDNTRGNGIFTYDAKYRTTLPGSLWADADNQFFASYDAPAVDAHYYAGVTYDYYKNVHNRLSYDGNNAAIRSSVHYSQGYNNAFWNGSQMVYGDGDGQTFIPLSGGIDVVAHELTHAVTDYTAGLIYQNESGAINEAISDIFGTLVEFYANKNPDWEIGEDVYTPGISGDSLRSMSDPAKYGDPDHYSKRYTGTQDNGGVHINSGIINKAAYLISQGGTHYGVSVVGIGRDKLGKIFYRALTQYLTPTSNFSQLRAAAVQSATDLYGSTSQEVASVKQAFDAVGVK

How the values were obtained:
[1] = ELSA: hydrolysis of plate-bound biotinylated β-glucan by enzymes; assay type: biochemical; settings: for Relative activity compared to lichenase (mean ± SD, n = 12): enzymes diluted to 5 U/mL per manufacturer values, 0.2 biotin-glucan diluted 1 to 50,000, hydrolysis 15 min, 22° C.
Protocol: Preparation of biotin-glucan conjugates. The technique is based on the principle that active aldehyde groups which is generated after sodium periodate oxidation of the hydroxyl group of the polysaccharide moiety, reacts with ethylenediamine to form an aminated polysaccharide. The Schiff bases that are formed are stabilized by reaction with sodium borohydride (Wong, 1991). The amine groups can then be conjugated to biotin using BNHS. In brief, 75 mg β-glucan was dissolved in 2 mL distilled water and 0.1 mL of 100 mM NaIO4 was then added. The reaction was protected from light and mixed for 0.5 hours at room temperature. The reaction mixture was treated with 1 mL ethylenediamine for 2 hours and unreacted reagents were removed by ethanol precipitation. This involved the addition of 8 mL of 95% (V/V) ethanol to the reaction mixture (3 mL), followed by mixing of the sample, centrifugation at 10000 g for 10 minutes at 0° C. and dissolving the pellet in 2 mL of distilled water. The preparations was washed three times. The washed precipitate was then dissolved in 2 mL distilled water, 5 mg of sodium borohydride were added and the reaction was allowed to proceed for 4 hours at 4° C. The washing steps as indicated above were repeated three times. The biotin ester (BNHS, 15 mg or 0.15 mg) was dissolved in 0.2 mL DMSO, the mixture was allowed to react at room temperature for 3 hours followed by three ethanol precipitations as described above. The final precipitate was dissolved in 3 mL distilled water, divided into aliquots and each aliquot of the BNHS-β-glucan complex was store frozen at […] in sealed polypropylene containers. The ratio of BNHS to β-glucan were 0.2 and 0.002 for the complexes that were synthesized from 15 mg or 0.15 mg BNHS and 75 mg β-glucan, respectively.
The microtitre plates were directly coated with 0.1 mL/well of the biotin-glucan complex diluted in 0.05 M carbonate-bicarbonate buffer (pH=9.6), and then left at room temperature for 1 hr and overnight at […] The usual dilutions of the 0.2 and 0.002 stock biotin-glucan complex were 50,000 and 100 fold, respectively. The plates were washed 3 times with PBS-T buffer and the emptied plates were stored in sealed containers at 0° C. for up to several months.
Test procedures. β-Glucanase (lichenase) was diluted with 20 mM sodium phosphate buffer (pH 6.5) to the desired concentration. The enzyme (100 μL) was added to each well in the biotin-glucan coated microtiter plate, the plate was sealed with a low evaporation lid, and the mixture was incubated for the desired period of time (from 1 to 30 minutes) and at the desired temperature (usually 22-24° C.). The reaction was stopped by emptying the plates followed by washing of the wells three times with pH 7.2 PBS-T. Blanks contained the incubation buffer without enzyme. Alkaline phosphatase-streptavidin (100 μg) diluted 1:1000 in pH 7.2 PBS was added to each well and incubated for 30 minutes at room temperature. The plates were washed six times with pH 7.2 PBS-T and dried at ambient temperature for approximately 10 to 20 minutes. Alkaline phosphatase substrate solution was then added to each well (100 μL) and the microtiter plates were incubated at room temperature for 30 minutes, or until absorbency of the well with no enzyme yielded a value of from 1.5 to 2.0 optical density units. The plates were read at 405 nm using a microtiter plate reader (Bio-Rad Laboratories Ltd., Mississauga, ON, Canada, Model 450).
Other procedures The method for preparing the arabinoxylan substrate was the same as used for β-glucan except the substrate was arabinoxylan rather than β-glucan. The BNHS to arabinoxylan ratio was 0.2 with the stock substrate being diluted 10,000 fold prior to being coated on the plate. The azo-barley-glucan method for the assay of β-glucanase was according to the procedure described by McCleary and Shameer (1987). The precision of the assay was studied using three concentration of enzyme (0.076, 2.1 and 160 mU)/well. […]

[2] = system: trypsin (EC 3.4.21.4); assay: BEISA: competition of inhibitors or other substances for biotinylated trypsin against coated ovomucoid; assay type: binding
Protocol: Methods: NHS-biotin solution (5.5 mg in 200 ul dimethyl sulfoxide) and trypsin solution (15 mg in 1000 ul PBS) were mixed and reacted at room temperature for 3 hours with gently shaking. The unconjugated biotin was removed at 4° C. using minicon-15 concentrator (Amicon. Co.). The final volume was 1000 ul.
The 96-well microtiter plate (Falcon 3911) was coated with trypsin egg white inhibitor (ovomucoid, 4 ug/100 ul/well) at 370° C. overnight. The plate was washed once using PBST {[PBS, NaCl, 9.00; Na2HPO4, 1.15; NaH2PO4, 0.23 (g/l) pH 7.2] plus 0.05% Tween-20} and 200 ul of 5% skim milk was added to each well of the plate followed by incubation at 37° C. for 2 hours. The plate was rinsed twice with PBST and 50 ul of PBS was added to each well of the plate except for those in column one where 100 ul of PBS was added. Unlabelled trypsin (50 ul of 400 ug/ml) was added to the wells of the second column followed by successive double dilutions of trypsin in wells up to and including those in column 11. Biotinylated trypsin in PBS (50 ul of 1:3000 dilution of the stock to yield approximately 2 ug/100 ul/well) was added to each well except those in the first column followed by incubation at 37° C. for 1 hour. The final volume in each well was 100 ul. The blank set of wells with no trypsin (column 1) served as the negative control while the last set of wells (column 12) with biotinylated trypsin but no unlabelled trypsin served as the positive control. The plate was then washed three times with PBST and 100 ul of streptavidin-alkaline phosphatase (1:1000 in 50 mM bicarbonate buffer, pH 9.5) was added to each well of the plate and the plate was incubated at room temperature for 30 minutes. The plate was washed five times using PBST and 100 ul/well of p-nitrophenyl phosphate substrate (1 mg/ml in 10% diethanolamine buffer, pH 9.8) was added to the plate followed by incubation at ambient temperature for about 30 minutes. The absorbency was then read at 405 nm using a microplate reader (Bio-Rad laboratories Inc. Mississauga, ON, Canada, model 450). […]

[3] = system: biotinylated α-casein; assay: Solid phase protease activity assay using biotinylated casein; assay type: biochemical; settings: for Hydrolysis of biotin-casein by proteases / Sensitivity (amount of enzyme required to hydrolyse 10% of the biotinylated α-casein): optimal pH of each protease, 37° C., 30 minutes
Protocol: Preparation of biotinylated casein: 12 mg α-casein in 1 ml of 0.1 M pH 7.2 phosphate-buffer saline [PBS, NaCl, 9.00; Na2HPO4, 1.15; NaH2PO4, 0.23 (g/l)] was allowed to react with 3.6 mg NHS-biotin in 150 ul DMSO for 2 hours at room temperature with gently shaking.
Assay procedure for protease activity using biotinylated casein: The microtitre plates except for the first column of 8 wells were coated using biotinylated α-casein in PBS (0.13 ug/well/100 ul) and incubated for 2 hours at 37° C. The plates were washed three times with 0.1 M PBST (PBS with 0.05% Tween-20). Different concentrations of the enzyme solution as indicated in FIGS. 12-14 (100 ul) were diluted with the appropriate buffer (see Table 2). They were added in triplicate to the wells of a plate followed by incubating in a humid atmosphere at 37° C. for 30 minutes. The plate was washed three times using PBST to terminate the protease reaction. A streptavidin-alkaline phosphatase solution (100 ul/well, 1:1000 dilution in bicarbonate buffer pH 9.5) was added to all wells in the plate except for the first column of 8 wells (as blank) and the plate was incubated at room temperature for 30 minutes. The blank set of wells contained only PBS, no added enzyme and no coating with biotinylated casein. The reaction was stopped by emptying and washing the plate six times with PBST. The pNPP substrate (100 ul/well, 1 mg/ml in 10% diethanolamine buffer pH9.8) was added to each well of the plate followed by incubation at room temperature for about 20 minutes. The absorbency was then read at 405 nm using a microplate reader (Bio-Rad laboratories, Ltd, Mississauga, ON, Canada; model 450). The best sensitivity was obtained when the maximum absorbency was around 2.0 optical density units.

[4] = target: T1, β-glucanase (lichenase) (Bacillus subtilis, UniProt P04957); assay: Influence of exogenous β-glucan on β-glucanase activity in the ELSA; assay type: biochemical; settings: 0.5 mU β-glucanase/well; 22° C., 15 minutes
T1 construct: purchased Megazyme Pty.Ltd. batch MLI 82001
Description: (§1) Other procedures The method for preparing the arabinoxylan substrate was the same as used for β-glucan except the substrate was arabinoxylan rather than β-glucan. The BNHS to arabinoxylan ratio was 0.2 with the stock substrate being diluted 10,000 fold prior to being coated on the plate. The azo-barley-glucan method for the assay of β-glucanase was according to the procedure described by McCleary and Shameer (1987). The precision of the assay was studied using three concentration of enzyme (0.076, 2.1 and 160 mU)/well. They were added (100 μl) to wells containing the 0.2 biotin-β-glucan diluted 1 to 50,000 and the mixture was incubated for 15 minutes at 22° C. Other procedures were as described above. The assay within the same titer plate was replicated 8 times. The entire assay was replicated 6 times. In the study on the effects that β-glucan had on enzyme activity, β-glucan (5.12 mg/mL) in 20 mM sodium phosphate buffer (pH6.5) was mixed with an equal volume of 0.2 U/mL of β-glucanase and hydrolysed at 40° C. for 60 minutes. The reaction was stopped by putting the enzyme solution in a boiling water bath for 15 minutes. The control sample contained β-glucan but was not incubated with enzyme and was not subjected to boiling. […]

[5] = ELSA for xylanase using biotin-arabinoxylan complex; assay type: biochemical
Description: as §1

[6] = Azo-barley glucan method for β-glucanase; assay type: biochemical
Description: as §1

Molecule | Relative activity compared to lichenase (mean ± SD, n = 12) [1] | Hydrolysis of biotin-casein by proteases [3] | Sensitivity (amount of enzyme required to hydrolyse 10% of the biotinylated α-casein) [3] | further results
1,4-β-D-glucan-4-glucanohydrolase [Cellulase] | 101 ± 7 | – | – | –
CC(C)C[C@H](NC(=O)N[C@H](C(=O)N[C@@H](CCC(N)=O)C(=O)N[C@@H](C)C=O)[C@@H]1CCNC(=N)N1)C(=O)O [elastatinal] | – | – | – | Interference with the binding of labelled trypsin to trypsin inhibitor [2]: did not interfere
pepsin | – | Yes | 641 ng/100 ul/sample | –
elastase | – | Yes | 4.4 ng/100 ul/sample | –
amylopectin 6-glycohydrolase [Pullulanase] | 1.8 ± 0.1 | – | – | –
β-glucan | – | – | – | Amount of β-glucan in the well above which enzyme activity was reduced [4]: exceeded 1 μg/well
endo-1,4-β-D xylan xylanohydrolase [Endo-β-xylanase] | 2.1 ± 0.1 | – | – | –
CC(=O)N[C@@H](CC(C)C)C(=O)N[C@@H](CC(C)C)C(=O)N[C@H](C=O)CCCNC(=N)N [leupeptin] | – | – | – | Concentration of inhibitor that could be detected ([2]; ovomucoid-coated plate 4 ug/100 ul/well, biotinylated trypsin about 2 ug/100 ul/well): 0.03 to 1 µg/mL
bovine serum albumin (BSA): other protein tested for interference | – | – | – | Interference with the binding of labelled trypsin to trypsin inhibitor [2]: did not interfere
B1 | 100 ± 4 | – | – | Detection range for the ELSA [1]: 0.001 to 1 mU/assay; Activity on biotin-arabinoxylan substrate [5]: No activity; Detection range of the azo-barley glucan procedure [6]: 10 to 100 mU/assay
B2 | – | Yes | 700 ng/100 ul/sample | Sensitivity: amount of enzyme required to produce a 10% decrease in maximal absorbency ([3]; 0.5 hour hydrolysis): 700 ng/100 ul
B3 | 4.3 ± 0.2 | – | – | –
B4 | – | Yes | 25 ng/100 ul/sample | –
